From paper PMC4977154, “Structural mechanism of ligand activation in human calcium-sensing receptor” (eLife, 2016) come the findings set out here.

Data set [1] deals with the molecule itself. Kind of data set: SEC; Superdex-200 size exclusion chromatography of secreted wild-type CaSR ECD; 20 mM Tris pH 8.0, 150 mM NaCl. Background: In gel filtration, larger molecules generally elute earlier.
Data set [2] deals with the molecule itself. Kind of data set: SDS gel under reducing and non-reducing conditions; purified CaSR ECD mutant (N386Q, S402N, N468Q) after Superdex-200, with (+DTT) and without (-DTT) reducing agent.
Data set [3] deals with the molecule itself. Kind of data set: crystal structure; form I crystal, space group F222, one molecule per asymmetric unit, homodimer with a crystallographic symmetry-related molecule; 1.5 M Li2SO4, 100 mM Tris pH 8.5, 2 mM CaCl2, 20°C; inactive (open-open) state.

B1: wild-type human CaSR ECD (domain or fragment, UniProt P41180 20-612, looked up)
chain: YGPDQRAQKKGDIILGGLFPIHFGVAAKDQDLKSRPESVECIRYNFRGFRWLQAMIFAIEEINSSPALLPNLTLGYRIFDTCNTVSKALEATLSFVAQNKIDSLNLDEFCNCSEHIPSTIAVVGATGSGVSTAVANLLGLFYIPQVSYASSSRLLSNKNQFKSFLRTIPNDEHQATAMADIIEYFRWNWVGTIAADDDYGRPGIEKFREEAEERDICIDFSELISQYSDEEEIQHVVEVIQNSTAKVIVVFSSGPDLEPLIKEIVRRNITGKIWLASEAWASSSLIAMPQYFHVVGGTIGFALKAGQIPGFREFLKKVHPRKSVHNGFAKEFWEETFNCHLQEGAKGPLPVDTFLRGHEESGDRFSNSSTAFRPLCTGDENISSVETPYIDYTHLRISYNVYLAVYSIAHALQDIYTCLPGRGLFTNGSCADIKKVEAWQVLKHLRHLNFTNNMGEQVTFDECGDLVGNYSIINWHLSPEDGSIVFKEVGYYNVYAKKGERLFINEEKILWSGFSREVPFSNCSRDCLAGTRKGIIEGEPTCCFECVECPDGEYSDETDASACNKCPDDFWSNENHTSCIAKEIEFLSWTEPF
modifications: heavily glycosylated
notes: signal peptide in the construct; human calcium-sensing receptor (CaSR), extracellular domain, residues 1-612; The C-terminal Flag tag is told for 'each construct' in the paragraph on the mutants; the wild type was also purified on anti-Flag M2 and held by anti-Flag M2 in the scintillation proximity assay with L-Trp (not a protein-protein experiment); also called wt-CaSR ECD; extracellular domain …
In the case of B1, the binding result in data set [1] is “binds”.

B2: human CaSR ECD mutant carrying three glycosylation-site mutations (N386Q, S402N and N468Q) (domain or fragment, UniProt P41180 20-612, looked up)
chain: YGPDQRAQKKGDIILGGLFPIHFGVAAKDQDLKSRPESVECIRYNFRGFRWLQAMIFAIEEINSSPALLPNLTLGYRIFDTCNTVSKALEATLSFVAQNKIDSLNLDEFCNCSEHIPSTIAVVGATGSGVSTAVANLLGLFYIPQVSYASSSRLLSNKNQFKSFLRTIPNDEHQATAMADIIEYFRWNWVGTIAADDDYGRPGIEKFREEAEERDICIDFSELISQYSDEEEIQHVVEVIQNSTAKVIVVFSSGPDLEPLIKEIVRRNITGKIWLASEAWASSSLIAMPQYFHVVGGTIGFALKAGQIPGFREFLKKVHPRKSVHNGFAKEFWEETFNCHLQEGAKGPLPVDTFLRGHEESGDRFSQSSTAFRPLCTGDENINSVETPYIDYTHLRISYNVYLAVYSIAHALQDIYTCLPGRGLFTNGSCADIKKVEAWQVLKHLRHLQFTNNMGEQVTFDECGDLVGNYSIINWHLSPEDGSIVFKEVGYYNVYAKKGERLFINEEKILWSGFSREVPFSNCSRDCLAGTRKGIIEGEPTCCFECVECPDGEYSDETDASACNKCPDDFWSNENHTSCIAKEIEFLSWTEPF
modifications: N-acetyl-glucosamine seen at Asn90, Asn287, Asn488, Asn541 of one protomer and Asn541 of the other
notes: signal peptide in the construct; human calcium-sensing receptor (CaSR), extracellular domain, residues 1-612; modelled residues 20-119, 135-359, 393-598 in one protomer and 22-122, 136-360, 392-602 in the other; Disulfide-tethered homodimer; cloned into the pFBDM vector; also called calcium-sensing receptor extracellular domain; form II crystal protein; source: sf9 insect cells infected with …
B2: the binding result in data set [2] was “binds”.

B3: human CaSR ECD mutant carrying two glycosylation-site mutations (N386Q, S402N), partially deglycosylated with Endo H (domain or fragment, UniProt P41180 20-612, looked up)
chain: YGPDQRAQKKGDIILGGLFPIHFGVAAKDQDLKSRPESVECIRYNFRGFRWLQAMIFAIEEINSSPALLPNLTLGYRIFDTCNTVSKALEATLSFVAQNKIDSLNLDEFCNCSEHIPSTIAVVGATGSGVSTAVANLLGLFYIPQVSYASSSRLLSNKNQFKSFLRTIPNDEHQATAMADIIEYFRWNWVGTIAADDDYGRPGIEKFREEAEERDICIDFSELISQYSDEEEIQHVVEVIQNSTAKVIVVFSSGPDLEPLIKEIVRRNITGKIWLASEAWASSSLIAMPQYFHVVGGTIGFALKAGQIPGFREFLKKVHPRKSVHNGFAKEFWEETFNCHLQEGAKGPLPVDTFLRGHEESGDRFSQSSTAFRPLCTGDENINSVETPYIDYTHLRISYNVYLAVYSIAHALQDIYTCLPGRGLFTNGSCADIKKVEAWQVLKHLRHLNFTNNMGEQVTFDECGDLVGNYSIINWHLSPEDGSIVFKEVGYYNVYAKKGERLFINEEKILWSGFSREVPFSNCSRDCLAGTRKGIIEGEPTCCFECVECPDGEYSDETDASACNKCPDDFWSNENHTSCIAKEIEFLSWTEPF
modifications: partially deglycosylated with Endo H; N-acetyl-glucosamine seen at Asn261, Asn287, Asn446, Asn468, Asn488, Asn541, Asn594; inter-subunit disulfide bond formed by C129
notes: signal peptide in the construct; human calcium-sensing receptor (CaSR), extracellular domain, residues 1-612; modelled residues 21-130 and 136-603; Disulfide-linked homodimer; cloned into the pFBDM vector; also called calcium-sensing receptor extracellular domain; form I crystal protein; source: sf9 insect cells infected with baculovirus, with kifunensine, secreted
In the case of B3, the binding result in data set [3] was “binds”.
